Assay results taken from publication PMC9654039, “FUS Microphase Separation: Regulation by Nucleic Acid Polymers and DNA Repair Proteins”.

Experiments:
FUS∆LCD [1] = target: T1, FUS∆LCD (UniProt P35637 164-526); assay: fluorescence titration (Cy3-protein intensity); settings: apparent Kd; concentration as rNMP (nucleotides), not molecules; Hill fit n 3.07; Buffer, salt, pH and temperature of the fluorescence titrations are not given in the material; concentrations are in nucleotide units. Poly(ADP-ribose) (Kd,app …)
FUS∆LCD [2] = target: T1, FUS∆LCD; assay: fluorescence titration (Cy3-protein intensity); apparent Kd; concentration as dNMP (nucleotides), not molecules; Hill fit n 1.12; Buffer, salt, pH and temperature of the fluorescence titrations are not given in the material; concentrations are in nucleotide units. Poly(ADP-ribose) (Kd,app); settings: protein: recombinant; tags: Cy3 label (sulfo-cyanine 3 NHS ester); blunt; one-nucleotide gap between strands 1 and 2, opposite G of strand 3

T1 sequence (P35637 164-526): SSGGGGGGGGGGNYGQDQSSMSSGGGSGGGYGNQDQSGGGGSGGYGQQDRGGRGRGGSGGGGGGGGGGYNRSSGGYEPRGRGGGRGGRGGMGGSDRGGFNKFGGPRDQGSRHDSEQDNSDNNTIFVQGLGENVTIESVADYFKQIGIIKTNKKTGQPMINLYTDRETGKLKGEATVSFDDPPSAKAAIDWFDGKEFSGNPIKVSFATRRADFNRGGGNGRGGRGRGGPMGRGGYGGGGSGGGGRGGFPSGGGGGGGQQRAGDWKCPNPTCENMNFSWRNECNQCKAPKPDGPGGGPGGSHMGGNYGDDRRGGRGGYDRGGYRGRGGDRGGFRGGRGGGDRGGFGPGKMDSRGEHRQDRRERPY

Row | Molecule | Kd (FUS∆LCD [1]) | Kd (FUS∆LCD [2])
1 | RNA (~3000 nt luciferase mRNA) | 183 nM | 
2 | dsDNA (30 bp, one-nucleotide gap) (dsDNA, 5'-phosphate on S4 (downstream strand); 3'-OH on S3) DNA 1: GGGTTGGTTTGCG DNA 2: ATTCACAGTTCTCCGC DNA 3: GCGGAGAACTGTGAATGCGCAAACCAACCC |  | 2560 ± 159 nM
